# B1: SPP: N10/20A (protein)
# parent chain: MDSAVSDPHNGSAEAGTPANGTTRPPSTPEGIALAYGSLLLMALLPIFFGALRSVRCARGKSSSDMPETITSRDAARFPIIASCTLLGLYLFFKIFSQEYINLLLSMYFFVLGILALSHTISPFMNKFFPANFPNRQYQLLFTQGSGENKEEIINYEFDTKDLVCLGLSSVVGVWYLLRKHWIANNLFGLAFSLNGVELLHLNNVSTGCILLGGLFIYDIFWVFGTNVMVTVAKSFEAPIKLVFPQDLLEKGLEADNFAMLGLGDIVIPGIFIALLLRFDISLKKNTHTYFYTSFAAYIFGLGLTIFIMHIFKHAQPALLYLVPACIGFPVLVALAKGEVAEMFSYEESNPKDPAAETESKEESTEASASKRLEKKEK
# B2: SPPL2c isoform A: N106A (protein)
# parent chain: MACLGSLHPLGSLLLLFLLLLLSPEARGEYGLVRVVSKNWSKDYCVLYSSDYVNLPRDLHHAPLLSLHDGTKTPWCPDEDSFHQAQDSSPRQRPLHQTTTMVTRGNCSFYAKGWLAQDQGAQGLLIVSRARNQQCSDTISKPQDPSKPWPALTIPVAVLRYTDMLDIVSHTYGDTDVRVAMFAPLEPVTDYNMAIIFILAVGTVAAGGYWAGLMEANKLQRRQAQRGGGLGGHNQQQTVAAERSQRAWEDDDFEDAPMDFTPAMTGAVVTMSCSIMILLYFFYDCFVYVMIGIFSLGASTGLYSCLAPILCHLPLWRYQWVLPGQRVSVTWPLLLLAGLCAMVTVLWVIHRNEDHWAWLLQDTLGVAYCLFVLRRVRLPTFKNCTLFLLALLAFDVFFVFITPLFTKTGESIMVEVASGPADSSSHERLPMVLKVPRLSFSALTLCNQPFSILGFGDIVVPGFLVAYCHRFDMQVQSRQVYYMACTVAYAVGLLVTFVAMILMQMGQPALLYLVSSTLLTSLAVATCRQEFTLFWTGQGRAKIPAEPVAQPCIASAVGSKMKLEDAKDSRTTNRFEQAVDGESGDLESSTGDDMAEMVTLSEDEATSPEGHSESSEGWSDTNLDPNELPSGSPMALEAMLIPLIQPIPHPSELGHIRTQSRVHDSSLPWMGLHKRKGLKVKKSMSAQAPL
# How the values were obtained:
# [1] = cell-based cleavage assay, western blot; conditions: glycan lost
# [2] = immunofluorescence of HO-1 ICD nuclear translocation, HeLa; conditions: glycan lost; control: wild type SPPL2c-myc
# [3] = western blot of total lysates, HEK293T; conditions: glycan lost; control: wild type SPPL2c-myc
Protein,enzymatic_activity ([1]; control: wild type SPP-myc),enzymatic_activity [2],expression_or_secretion [3],enzymatic_activity ([1]; control: wild type SPPL2c-myc)
B1,no change,–,–,–
B2,–,abolishes,decreases,abolishes

# Source: publication PMC11513070
